Source: US20250171532A1 (NB HEALTH LABORATORY, published 2025)
Positions count from the first letter of the chain named. Where two headings read alike, the source gives them in different places.

T1: mouse LPA3 with FLAG tag (mouse LPA3 gene transfected cell) (mouse, UniProt Q9EQ31 1-354)
T1 construct: not shown: FLAG tag added at the 5' terminal of the gene
T1 sequence: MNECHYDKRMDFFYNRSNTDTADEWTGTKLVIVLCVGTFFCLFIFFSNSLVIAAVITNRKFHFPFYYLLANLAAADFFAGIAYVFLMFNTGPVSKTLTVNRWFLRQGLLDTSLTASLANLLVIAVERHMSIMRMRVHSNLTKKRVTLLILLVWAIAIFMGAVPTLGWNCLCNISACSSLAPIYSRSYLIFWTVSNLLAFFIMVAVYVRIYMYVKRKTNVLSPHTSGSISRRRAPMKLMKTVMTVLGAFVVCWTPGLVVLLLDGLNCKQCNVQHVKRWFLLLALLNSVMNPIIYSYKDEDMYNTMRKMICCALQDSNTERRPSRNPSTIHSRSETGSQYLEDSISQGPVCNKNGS

T2: human LPA3 with FLAG tag (human LPA3 gene transfected cell) (human, UniProt Q9UBY5 1-353)
T2 construct: also called EDG7; not shown: FLAG tag added at the 5' terminal of the gene
T2 sequence: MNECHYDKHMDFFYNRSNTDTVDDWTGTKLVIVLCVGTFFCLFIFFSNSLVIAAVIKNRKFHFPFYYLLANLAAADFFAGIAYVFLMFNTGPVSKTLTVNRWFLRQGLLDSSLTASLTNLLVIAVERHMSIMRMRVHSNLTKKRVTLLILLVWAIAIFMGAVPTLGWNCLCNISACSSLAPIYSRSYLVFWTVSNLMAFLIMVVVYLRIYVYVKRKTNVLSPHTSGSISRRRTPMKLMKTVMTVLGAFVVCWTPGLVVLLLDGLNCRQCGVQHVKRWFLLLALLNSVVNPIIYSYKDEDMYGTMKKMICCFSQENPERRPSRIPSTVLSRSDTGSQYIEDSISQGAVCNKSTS

B1: h309-4-A-BP1 (antibody, human IgG1, kappa, L234A L235A, V domains shown)
VH: QVQLVQSGAEVKKPGASVKVSCKASGYTFTSYGISWVRQAPGQGLEWMGEIYPRSGNTYYNEKFKGRVTLTADKSTSTAYMELRSLTSEDTAVYFCARESISRRLGWNFDVWGQGTTVTVSS
VL: DIQMTQSPSSLSASVGDTVTITCRASENIYSFLAWYQQKPGKAPKLLIYNAKTLTEGVPSRFSGSGSGTHFSLTINSLQPEDFGIYYCQHHYGPPLTFGQGTKLEIKR
notes: also called humanized anti-LPA1 antibody
B2: h309-4-A-SG1 (antibody, human IgG1, kappa, L234A L235A, V domains shown)
VH: B1 VH with M48I, V68A, T87R, E89D, Q114T
VL: B1 VL with T18R, L47V, I48V, H70D, S72T, N76S, G84A, I85T, Q100A, I106L
notes: as for B1
B3: h309-4-A-SS1 (antibody, human IgG1, kappa, L234A L235A, V domains shown)
VH: QVQLQESGPGLVKPSETLSLTCTASGYTFTSYGISWVRQTPGKGLEWIGEIYPRSGNTYYNEKFKGRATLSADKSKNQASLKLKSVTAADTAIYFCARESISRRLGWNFDVWGRGTLVTVSG
VL: DIQMTQTPSSLSASVGDRVTITCRASENIYSFLAWYQQKPGEAPKRVVYNAKTLTEGVPSRFSGSGSGTDFTLTISSLQPEDFATYYCQHHYGPPLTFGQGTKLEIKR
notes: as for B1
B4: 210309-4-A (antibody, mouse IgG1, V domains shown)
VH: QVQLQQSGAELARPGASVKLSCKASGYTFTSYGISWVKQRTGQGLEWIGEIYPRSGNTYYNEKFKGKATLTADKSSSTAYMELRSLTSEDSAVYFCARESISRRLGWNFDVWGTGTTVTVSS
VL: DIHMTQSPASLSASVGETVTITCRASENIYSFLAWYQQKQGKSPHLVVYNAKTLTEGVPSRFSGSGSGTHFSLKINSLQPEDFGIYYCQHHYGPPLTFGAGTKLELK
notes: Mouse monoclonal from human LPA1 immunization
B5: 309-4-A-Chimera (antibody, human IgG1, kappa, L234A L235A, V domains shown)
VH: B4 VH
VL: DIHMTQSPASLSASVGETVTITCRASENIYSFLAWYQQKQGKSPHLVVYNAKTLTEGVPSRFSGSGSGTHFSLKINSLQPEDFGIYYCQHHYGPPLTFGAGTKLELKR
notes: also called chimeric anti-LPA1 antibody

Legend:
human LPA1 [1] = molecular target: T3, human LPA1 (human, UniProt Q92633 1-364); experiment: cell-based or functional assay
T3 sequence (Q92633 whole entry): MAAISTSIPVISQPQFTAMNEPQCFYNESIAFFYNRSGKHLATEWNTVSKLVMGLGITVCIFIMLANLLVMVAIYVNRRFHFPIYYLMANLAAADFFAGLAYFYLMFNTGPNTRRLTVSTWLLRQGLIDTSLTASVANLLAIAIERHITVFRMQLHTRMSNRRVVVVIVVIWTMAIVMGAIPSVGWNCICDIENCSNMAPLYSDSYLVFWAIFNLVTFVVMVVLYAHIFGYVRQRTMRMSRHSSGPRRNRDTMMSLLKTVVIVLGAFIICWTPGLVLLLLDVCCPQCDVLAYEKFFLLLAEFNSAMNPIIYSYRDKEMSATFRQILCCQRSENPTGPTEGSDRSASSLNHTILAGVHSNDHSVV

human LPA1 [2] = molecular target: T3, human LPA1; experiment: flow cytometry, human LPA1-stably expressing CHO cells, median fluorescence intensity
From the text: (§1) The human LPA1-stably expressing CHO cell and the mouse LPA1-stably expressing CHO cell were washed with PBS, then detached from the cell culture dishes by an enzyme-free cell dissociation buffer (Thermo Fisher Scientific, Inc.), then washed with PBS, and then collected by centrifugation. The human LPA1-stably expressing CHO cell and the mouse LPA1-stably expressing CHO cell were suspended at 1×10⁷ cells/mL in Fc Block (Sci-Tech Biosciences, Inc.) diluted by 500 times in FACS buffer, and then allowed to stand at 4° C. for 30 minutes to block the cells. The cells were collected by centrifugation and suspended in FACS buffer at 4×10⁶ cells/mL, and this suspension was dispensed into a V-bottom 96-well plate (Thermo Fisher Scientific, Inc.) at 25 μL (1×10⁵ cells)/well. As primary antibodies, the eleven types of LPA1 antibodies produced and purified by the method described above and a mouse isotype control antibody (Fujifilm Wako Pure Chemicals Corporation) were diluted stepwise, which was added to each well at 25 μL/well, and allowed to stand at 4° C. for 1 hour. The cells were collected by centrifugation and washed with 120 μL of FACS buffer. This washing operation was repeated twice. To the cell sediment, 25 μL each of Goat Anti-Mouse IgG H&L (DyLight 650) (Abcam) that was a secondary antibody diluted by 500 times in FACS buffer was dispensed, then suspended, and then allowed to stand at 4° C. for 1 hour. The cells were washed twice, then suspended in 50 μL of FACS buffer, and the binding of antibodies to the cells was measured using a flow cytometer (Agilent Novocyte).
Subsequently, the binding activity of the human LPA1-stably expressing CHO cell to human LPA1 was measured according to the method in Example 6. A graph was created, in which a concentration of the antibody was plotted on the […] axis, and a median fluorescence intensity of the flow cytometer histogram was plotted on the horizontal axis. […] The intracellular cAMP signaling inhibitory activity was also measured according to the method in Example 7.

[3] = molecular target: T1, mouse LPA3 with FLAG tag (mouse LPA3 …); experiment: flow cytometry, transfected HEK293FT cells, histogram shift
Description: (§2) BTEK293FT cell was transfected with 10 μg of an expression vector carrying each synthetic gene using Lipofectamine 2000, to prepare a human LPA1 gene transfected cell, a mouse LPA1 gene transfected cell, a human LPA2 gene transfected cell, a mouse LPA2 gene transfected cell, a human LPA3 gene transfected cell, and a mouse LPA3 gene transfected cell.
(§3) The next day, the cells were washed with PBS, then detached from the cell culture dishes by an enzyme-free cell dissociation buffer (Thermo Fisher Scientific, Inc.), then washed with PBS, and then collected by centrifugation. Goat serum (Thermo Fisher Scientific, Inc.) was diluted by 2 times in FACS buffer (PBS containing 1% o of FBS), into which the cells were suspended at 1×10⁷ cells/mL. This suspension was allowed to stand at 4° C. for 30 minutes to block the cells. The cells were collected by centrifugation and suspended in FACS buffer at 4×10⁶ cells/mL, and this suspension was dispensed into a V-bottom 96-well plate (Thermo Fisher Scientific, Inc.) at 25 μL (1×10⁵ cells)/well.
(§4) The cells were collected by centrifugation and washed with 120 μL of FACS buffer. This washing operation was repeated twice. To the cell sediment, 25 μL each of Goat Anti-Mouse IgG H&L (DyLight 650) (Abcam) that was a secondary antibody diluted by 500 times in FACS buffer was dispensed, then suspended, and then allowed to stand at 4° C. for 1 hour. The cells were washed twice, then suspended in 50 μL of FACS buffer, and the whole content thereof was transferred to a V-bottom 96-well plate (Greiner), to measure the binding of antibodies to the cells using a flow cytometer (Agilent Novocyte).

[4] = molecular target: T2, human LPA3 with FLAG tag (human LPA3 …); experiment: as above
Description: as §2, §3, §4

[5] = molecular target: T4, human LPA2 with FLAG tag (human LPA2 gene transfected cell) (human, UniProt Q9HBW0 1-348); experiment: as above
T4 construct: also called EDG4; not shown: FLAG tag added at the 5' terminal of the gene
T4 sequence (Q9HBW0 other isoform, or with tags, fused parts or gaps): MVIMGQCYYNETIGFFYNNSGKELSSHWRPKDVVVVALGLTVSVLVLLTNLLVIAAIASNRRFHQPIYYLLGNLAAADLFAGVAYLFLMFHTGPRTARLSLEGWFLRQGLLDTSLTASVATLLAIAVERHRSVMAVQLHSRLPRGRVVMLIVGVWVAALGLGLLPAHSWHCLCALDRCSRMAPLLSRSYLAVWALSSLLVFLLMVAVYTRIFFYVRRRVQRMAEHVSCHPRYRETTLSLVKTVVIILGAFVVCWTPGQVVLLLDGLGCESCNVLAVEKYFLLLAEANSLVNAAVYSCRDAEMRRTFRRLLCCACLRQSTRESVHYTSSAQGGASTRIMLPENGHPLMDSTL
Description: as §2, §3, §4

[6] = molecular target: T5, mouse LPA2 with FLAG tag (mouse LPA2 gene transfected cell) (mouse, UniProt Q9JL06 1-348); experiment: as above
T5 construct: not shown: FLAG tag added at the 5' terminal of the gene
T5 sequence (Q9JL06 whole entry): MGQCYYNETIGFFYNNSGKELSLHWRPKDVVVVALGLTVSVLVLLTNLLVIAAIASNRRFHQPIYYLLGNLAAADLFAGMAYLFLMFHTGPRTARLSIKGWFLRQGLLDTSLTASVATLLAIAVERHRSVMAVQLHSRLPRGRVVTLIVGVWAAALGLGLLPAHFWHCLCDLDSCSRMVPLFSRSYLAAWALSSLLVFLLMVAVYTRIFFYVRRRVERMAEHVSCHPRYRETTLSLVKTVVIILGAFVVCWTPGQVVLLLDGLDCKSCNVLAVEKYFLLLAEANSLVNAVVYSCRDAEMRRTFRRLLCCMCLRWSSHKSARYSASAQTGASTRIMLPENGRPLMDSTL
Description: as §2, §3, §4

human LPA1 [7] = molecular target: T3, human LPA1; experiment: flow cytometry, human LPA1-stably expressing CHO cells, median fluorescence intensity; remark: listed apart in the source
From the text: as §1
(§5) A graph was created, in which a concentration of the antibody was plotted on the […] axis, and a median fluorescence intensity of the flow cytometer histogram was plotted on the horizontal axis. All of the eleven antibodies were confirmed to dose-dependently bind to the human LPA1-stably expressing CHO cell and the mouse LPA1-stably expressing CHO cell. The results of the binding of each antibody to the human LPA1-stably expressing CHO cell are presented in FIG. 2A to FIG. 2K, and the results of the binding of each antibody to the mouse LPA1-stably expressing CHO cell are presented in FIG. 3A to FIG. 3K.

mouse LPA1 [8] = molecular target: T6, mouse LPA1 (mouse, UniProt P61793 1-364); experiment: flow cytometry, mouse LPA1-stably expressing CHO cells, median fluorescence intensity
T6 construct: Untagged, on mouse LPA1-stably expressing CHO cells (Flp-In-CHO); also called mLPA1
T6 sequence (P61793 whole entry): as the sequence (Q92633 whole entry) above, with I4A, I8S, P22Q, H40Y, I61V, E193D, N194H, I269V, S331N, T335N counted along it
From the text: as §1, §5

mouse LPA1 [9] = molecular target: T6, mouse LPA1; experiment: cell-based or functional assay
human LPA1 [10] = molecular target: T3, human LPA1; experiment: cell-based or functional assay; remark: listed apart in the source
mouse LPA1 [11] = molecular target: T6, mouse LPA1; experiment: cell-based or functional assay; remark: listed apart in the source
human LPA1 [12] = molecular target: T3, human LPA1; experiment: cell-based or functional assay; remark: listed apart in the source

Binder	Intracellular cAMP signaling inhibition IC50 (human LPA1 [1]) [nM]	EC50 (human LPA1 [2]) [nM]	other results
B1	4.4	4.3	–
B2	5.7	4.2	–
B3	5.2	4.9	–
B4	4.5	1.4	binding result [3]: no binding (tested: 25 g/mL (so in the source)); binding result [4]: no binding (tested: 25 g/mL (so in the source)); binding result [5]: no binding (tested: 25 g/mL (so in the source)); binding result [6]: no binding (tested: 25 g/mL (so in the source)); EC50 (human LPA1 [7]): 1.5 nM; EC50 (mouse LPA1 [8]): 1.1 nM; Intracellular cAMP signaling inhibition (Inhibition rate %/100 nM) (mouse LPA1 [9]): 50%; Intracellular cAMP signaling inhibition (Inhibition rate %/100 nM) (human LPA1 [10]): 95%; Intracellular cAMP signaling inhibition IC50 (mouse LPA1 [11]): 23.8 nM; Intracellular cAMP signaling inhibition IC50 (human LPA1 [12]): 5.3 nM
B5	1	4.4	–
